Experimental data reported in patent publication EP4692114A1, “CALCITONIN ANALOGUE, AND DERIVATIVE THEREOF AND USE THEREOF” (Hangzhou Sciwind Biosciences Co., Ltd., priority 2023, dated 2024).
*1 amine or outer side, *2 acyl side, *3 side chain or, on linkers, in order; H or OH if unused. The star is where a group is joined. C22 diacid = O=C(O)CCCCCCCCCCCCCCCCCCCCC(=O)*; C20 diacid = O=C(O)CCCCCCCCCCCCCCCCCCC(=O)*; γGlu = O=C(O)[C@H](CCC(=O)[*:2])N[*:1]; AEEA = NCCOCCOCC(=O)O

T1: human amylin receptor (AMY3) on CHO-K1/Gal5/AMY3 cells (human, UniProt P30988 25-474; O60896 24-148)
T1 sequence (looked up) 1: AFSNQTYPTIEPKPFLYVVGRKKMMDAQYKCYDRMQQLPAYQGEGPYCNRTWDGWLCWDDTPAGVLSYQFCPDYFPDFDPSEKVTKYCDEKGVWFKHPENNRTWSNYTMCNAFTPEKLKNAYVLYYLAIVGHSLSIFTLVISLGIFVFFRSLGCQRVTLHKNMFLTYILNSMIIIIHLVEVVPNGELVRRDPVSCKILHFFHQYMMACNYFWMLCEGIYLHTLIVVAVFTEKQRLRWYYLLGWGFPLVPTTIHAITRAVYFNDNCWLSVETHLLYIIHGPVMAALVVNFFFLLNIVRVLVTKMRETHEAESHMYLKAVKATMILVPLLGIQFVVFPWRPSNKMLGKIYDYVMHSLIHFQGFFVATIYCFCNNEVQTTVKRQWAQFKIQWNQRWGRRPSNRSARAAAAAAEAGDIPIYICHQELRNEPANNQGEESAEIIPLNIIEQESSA
T1 sequence (looked up) 2: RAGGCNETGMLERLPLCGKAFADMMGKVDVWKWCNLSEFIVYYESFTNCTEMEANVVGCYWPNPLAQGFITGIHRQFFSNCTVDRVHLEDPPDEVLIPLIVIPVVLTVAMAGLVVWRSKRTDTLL

B1: calcitonin derivative M34 (peptide)
peptide: {C20 diacid-γGlu}-ASELSTAVLGRLSEELHRLEDYPRTDVGSGSP-NH2
SMILES: CC(C)C[C@H](NC(=O)[C@H](CCCNC(=N)N)NC(=O)CNC(=O)[C@H](CC(C)C)NC(=O)[C@@H](NC(=O)[C@H](C)NC(=O)[C@@H](NC(=O)[C@H](CO)NC(=O)[C@H](CC(C)C)NC(=O)[C@H](CCC(=O)O)NC(=O)[C@H](CO)NC(=O)[C@H](C)NC(=O)CC[C@H](NC(=O)CCCCCCCCCCCCCCCCCCC(=O)O)C(=O)O)[C@@H](C)O)C(C)C)C(=O)N[C@@H](CO)C(=O)N[C@@H](CCC(=O)O)C(=O)N[C@@H](CCC(=O)O)C(=O)N[C@@H](CC(C)C)C(=O)N[C@@H](Cc1c[nH]cn1)C(=O)N[C@@H](CCCNC(=N)N)C(=O)N[C@@H](CC(C)C)C(=O)N[C@@H](CCC(=O)O)C(=O)N[C@@H](CC(=O)O)C(=O)N[C@@H](Cc1ccc(O)cc1)C(=O)N1CCC[C@H]1C(=O)N[C@@H](CCCNC(=N)N)C(=O)N[C@H](C(=O)N[C@@H](CC(=O)O)C(=O)N[C@H](C(=O)NCC(=O)N[C@@H](CO)C(=O)NCC(=O)N[C@@H](CO)C(=O)N1CCC[C@H]1C(N)=O)C(C)C)[C@@H](C)O
B2: calcitonin derivative M66 (peptide)
peptide: {C22 diacid-γGlu-AEEA-AEEA}-ASQLSTAVLGRLSEELHRLQDYPRTDVGSGSP-NH2
SMILES: CC(C)C[C@H](NC(=O)[C@H](CCCNC(=N)N)NC(=O)CNC(=O)[C@H](CC(C)C)NC(=O)[C@@H](NC(=O)[C@H](C)NC(=O)[C@@H](NC(=O)[C@H](CO)NC(=O)[C@H](CC(C)C)NC(=O)[C@H](CCC(N)=O)NC(=O)[C@H](CO)NC(=O)[C@H](C)NC(=O)COCCOCCNC(=O)COCCOCCNC(=O)CC[C@H](NC(=O)CCCCCCCCCCCCCCCCCCCCC(=O)O)C(=O)O)[C@@H](C)O)C(C)C)C(=O)N[C@@H](CO)C(=O)N[C@@H](CCC(=O)O)C(=O)N[C@@H](CCC(=O)O)C(=O)N[C@@H](CC(C)C)C(=O)N[C@@H](Cc1c[nH]cn1)C(=O)N[C@@H](CCCNC(=N)N)C(=O)N[C@@H](CC(C)C)C(=O)N[C@@H](CCC(N)=O)C(=O)N[C@@H](CC(=O)O)C(=O)N[C@@H](Cc1ccc(O)cc1)C(=O)N1CCC[C@H]1C(=O)N[C@@H](CCCNC(=N)N)C(=O)N[C@H](C(=O)N[C@@H](CC(=O)O)C(=O)N[C@H](C(=O)NCC(=O)N[C@@H](CO)C(=O)NCC(=O)N[C@@H](CO)C(=O)N1CCC[C@H]1C(N)=O)C(C)C)[C@@H](C)O
B3: calcitonin derivative M50 (peptide)
peptide: {C20 diacid-γGlu}-ASQLSTAVLGRLSDELHRLQDLPRTDVGSGSP-NH2
SMILES: CC(C)C[C@H](NC(=O)[C@H](CCCNC(=N)N)NC(=O)CNC(=O)[C@H](CC(C)C)NC(=O)[C@@H](NC(=O)[C@H](C)NC(=O)[C@@H](NC(=O)[C@H](CO)NC(=O)[C@H](CC(C)C)NC(=O)[C@H](CCC(N)=O)NC(=O)[C@H](CO)NC(=O)[C@H](C)NC(=O)CC[C@H](NC(=O)CCCCCCCCCCCCCCCCCCC(=O)O)C(=O)O)[C@@H](C)O)C(C)C)C(=O)N[C@@H](CO)C(=O)N[C@@H](CC(=O)O)C(=O)N[C@@H](CCC(=O)O)C(=O)N[C@@H](CC(C)C)C(=O)N[C@@H](Cc1c[nH]cn1)C(=O)N[C@@H](CCCNC(=N)N)C(=O)N[C@@H](CC(C)C)C(=O)N[C@@H](CCC(N)=O)C(=O)N[C@@H](CC(=O)O)C(=O)N[C@@H](CC(C)C)C(=O)N1CCC[C@H]1C(=O)N[C@@H](CCCNC(=N)N)C(=O)N[C@H](C(=O)N[C@@H](CC(=O)O)C(=O)N[C@H](C(=O)NCC(=O)N[C@@H](CO)C(=O)NCC(=O)N[C@@H](CO)C(=O)N1CCC[C@H]1C(N)=O)C(C)C)[C@@H](C)O
B4: calcitonin derivative M18 (peptide)
peptide: {C20 diacid-γGlu}-ASQLSTAVLGRLSQELHRLQDLPRTDVGSGSP-NH2
SMILES: CC(C)C[C@H](NC(=O)[C@H](CCCNC(=N)N)NC(=O)CNC(=O)[C@H](CC(C)C)NC(=O)[C@@H](NC(=O)[C@H](C)NC(=O)[C@@H](NC(=O)[C@H](CO)NC(=O)[C@H](CC(C)C)NC(=O)[C@H](CCC(N)=O)NC(=O)[C@H](CO)NC(=O)[C@H](C)NC(=O)CC[C@H](NC(=O)CCCCCCCCCCCCCCCCCCC(=O)O)C(=O)O)[C@@H](C)O)C(C)C)C(=O)N[C@@H](CO)C(=O)N[C@@H](CCC(N)=O)C(=O)N[C@@H](CCC(=O)O)C(=O)N[C@@H](CC(C)C)C(=O)N[C@@H](Cc1c[nH]cn1)C(=O)N[C@@H](CCCNC(=N)N)C(=O)N[C@@H](CC(C)C)C(=O)N[C@@H](CCC(N)=O)C(=O)N[C@@H](CC(=O)O)C(=O)N[C@@H](CC(C)C)C(=O)N1CCC[C@H]1C(=O)N[C@@H](CCCNC(=N)N)C(=O)N[C@H](C(=O)N[C@@H](CC(=O)O)C(=O)N[C@H](C(=O)NCC(=O)N[C@@H](CO)C(=O)NCC(=O)N[C@@H](CO)C(=O)N1CCC[C@H]1C(N)=O)C(C)C)[C@@H](C)O
B5: calcitonin derivative M35 (peptide)
peptide: {C20 diacid-γGlu}-RSQLSTDVLGRLSQELHRLQDYPRTDVGSGSP-NH2
SMILES: CC(C)C[C@H](NC(=O)[C@H](CCCNC(=N)N)NC(=O)CNC(=O)[C@H](CC(C)C)NC(=O)[C@@H](NC(=O)[C@H](CC(=O)O)NC(=O)[C@@H](NC(=O)[C@H](CO)NC(=O)[C@H](CC(C)C)NC(=O)[C@H](CCC(N)=O)NC(=O)[C@H](CO)NC(=O)[C@H](CCCNC(=N)N)NC(=O)CC[C@H](NC(=O)CCCCCCCCCCCCCCCCCCC(=O)O)C(=O)O)[C@@H](C)O)C(C)C)C(=O)N[C@@H](CO)C(=O)N[C@@H](CCC(N)=O)C(=O)N[C@@H](CCC(=O)O)C(=O)N[C@@H](CC(C)C)C(=O)N[C@@H](Cc1c[nH]cn1)C(=O)N[C@@H](CCCNC(=N)N)C(=O)N[C@@H](CC(C)C)C(=O)N[C@@H](CCC(N)=O)C(=O)N[C@@H](CC(=O)O)C(=O)N[C@@H](Cc1ccc(O)cc1)C(=O)N1CCC[C@H]1C(=O)N[C@@H](CCCNC(=N)N)C(=O)N[C@H](C(=O)N[C@@H](CC(=O)O)C(=O)N[C@H](C(=O)NCC(=O)N[C@@H](CO)C(=O)NCC(=O)N[C@@H](CO)C(=O)N1CCC[C@H]1C(N)=O)C(C)C)[C@@H](C)O
B6: calcitonin derivative M52 (peptide)
peptide: {C20 diacid}-EASQLSTAVLGRLSEELHRLQDYPRTDVGSGSP-NH2
SMILES: CC(C)C[C@H](NC(=O)[C@H](CCCNC(=N)N)NC(=O)CNC(=O)[C@H](CC(C)C)NC(=O)[C@@H](NC(=O)[C@H](C)NC(=O)[C@@H](NC(=O)[C@H](CO)NC(=O)[C@H](CC(C)C)NC(=O)[C@H](CCC(N)=O)NC(=O)[C@H](CO)NC(=O)[C@H](C)NC(=O)[C@H](CCC(=O)O)NC(=O)CCCCCCCCCCCCCCCCCCC(=O)O)[C@@H](C)O)C(C)C)C(=O)N[C@@H](CO)C(=O)N[C@@H](CCC(=O)O)C(=O)N[C@@H](CCC(=O)O)C(=O)N[C@@H](CC(C)C)C(=O)N[C@@H](Cc1c[nH]cn1)C(=O)N[C@@H](CCCNC(=N)N)C(=O)N[C@@H](CC(C)C)C(=O)N[C@@H](CCC(N)=O)C(=O)N[C@@H](CC(=O)O)C(=O)N[C@@H](Cc1ccc(O)cc1)C(=O)N1CCC[C@H]1C(=O)N[C@@H](CCCNC(=N)N)C(=O)N[C@H](C(=O)N[C@@H](CC(=O)O)C(=O)N[C@H](C(=O)NCC(=O)N[C@@H](CO)C(=O)NCC(=O)N[C@@H](CO)C(=O)N1CCC[C@H]1C(N)=O)C(C)C)[C@@H](C)O
B7: calcitonin derivative M20 (peptide)
peptide: {C20 diacid-γGlu}-ASQLSTAVLGRLSQELHRLQDYPRTDVGAESP-NH2
SMILES: CC(C)C[C@H](NC(=O)[C@H](CCCNC(=N)N)NC(=O)CNC(=O)[C@H](CC(C)C)NC(=O)[C@@H](NC(=O)[C@H](C)NC(=O)[C@@H](NC(=O)[C@H](CO)NC(=O)[C@H](CC(C)C)NC(=O)[C@H](CCC(N)=O)NC(=O)[C@H](CO)NC(=O)[C@H](C)NC(=O)CC[C@H](NC(=O)CCCCCCCCCCCCCCCCCCC(=O)O)C(=O)O)[C@@H](C)O)C(C)C)C(=O)N[C@@H](CO)C(=O)N[C@@H](CCC(N)=O)C(=O)N[C@@H](CCC(=O)O)C(=O)N[C@@H](CC(C)C)C(=O)N[C@@H](Cc1c[nH]cn1)C(=O)N[C@@H](CCCNC(=N)N)C(=O)N[C@@H](CC(C)C)C(=O)N[C@@H](CCC(N)=O)C(=O)N[C@@H](CC(=O)O)C(=O)N[C@@H](Cc1ccc(O)cc1)C(=O)N1CCC[C@H]1C(=O)N[C@@H](CCCNC(=N)N)C(=O)N[C@H](C(=O)N[C@@H](CC(=O)O)C(=O)N[C@H](C(=O)NCC(=O)N[C@@H](C)C(=O)N[C@@H](CCC(=O)O)C(=O)N[C@@H](CO)C(=O)N1CCC[C@H]1C(N)=O)C(C)C)[C@@H](C)O

Target: T1, human amylin receptor (AMY3) on …
Assay: cell-based or functional assay

Q: How did the “EC50/nM, CRE-luciferase in amylin receptor/CRE-luc CHO cells” value turn out when B1 was run?
A: Its value is 0.058 nM.

Q: How did the “EC50/nM, CRE-luciferase in amylin receptor/CRE-luc CHO cells” value turn out when B2 was run?
A: The value was 0.017 nM.

Q: With B3 as the binder, how does the “EC50/nM, CRE-luciferase in amylin receptor/CRE-luc CHO cells” value read?
A: The value was 0.017 nM.

Q: With B4 as the binder, how does the “EC50/nM, CRE-luciferase in amylin receptor/CRE-luc CHO cells” value read?
A: Its value is 0.028 nM.

Q: With B5 as the binder, how does the “EC50/nM, CRE-luciferase in amylin receptor/CRE-luc CHO cells” value read?
A: The value was 0.037 nM.

Q: With B6 as the binder, how does the “EC50/nM, CRE-luciferase in amylin receptor/CRE-luc CHO cells” value read?
A: Its value is 0.017 nM.

Q: How did the “EC50/nM, CRE-luciferase in amylin receptor/CRE-luc CHO cells” value turn out when B7 was run?
A: Its value is 0.017 nM.
